Laboratory results taken from publication PMC12802153, “Cryo-EM reveals the structural heterogeneity and conformational flexibility of multidrug efflux pumps MdtB and MdtF” (mBio, 2025).

B1: MdtF, multidrug efflux HAE-RND transporter from Escherichia coli (natural protein)
chain: MANYFIDRPVFAWVLAIIMMLAGGLAIMNLPVAQYPQIAPPTITVSATYPGADAQTVEDSVTQVIEQNMNGLDGLMYMSSTSDAAGNASITLTFETGTSPDIAQVQVQNKLQLAMPSLPEAVQQQGISVDKSSSNILMVAAFISDNGSLNQYDIADYVASNIKDPLSRTAGVGSVQLFGSEYAMRIWLDPQKLNKYNLVPSDVISQIKVQNNQISGGQLGGMPQAADQQLNASIIVQTRLQTPEEFGKILLKVQQDGSQVLLRDVARVELGAEDYSTVARYNGKPAAGIAIKLAAGANALDTSRAVKEELNRLSAYFPASLKTVYPYDTTPFIEISIQEVFKTLVEAIILVFLVMYLFLQNFRATIIPTIAVPVVILGTFAILSAVGFTINTLTMFGMVLAIGLLVDDAIVVVENVERVIAEDKLPPKEATHKSMGQIQRALVGIAVVLSAVFMPMAFMSGATGEIYRQFSITLISSMLLSVFVAMSLTPALCATILKAAPEGGHKPNALFARFNTLFEKSTQHYTDSTRSLLRCTGRYMVVYLLICAGMAVLFLRTPTSFLPEEDQGVFMTTAQLPSGATMVNTTKVLQQVTDYYLTKEKDNVQSVFTVGGFGFSGQGQNNGLAFISLKPWSERVGEENSVTAIIQRAMIALSSINKAVVFPFNLPAVAELGTASGFDMELLDNGNLGHEKLTQARNELLSLAAQSPNQVTGVRPNGLEDTPMFKVNVNAAKAEAMGVALSDINQTISTAFGSSYVNDFLNQGRVKKVYVQAGTPFRMLPDNINQWYVRNASGTMAPLSAYSSTEWTYGSPRLERYNGIPSMEILGEAAAGKSTGDAMKFMADLVAKLPAGVGYSWTGLSYQEALSSNQAPALYAISLVVVFLALAALYESWSIPFSVMLVVPLGVVGALLATDLRGLSNDVYFQVGLLTTIGLSAKNAILIVEFAVEMMQKEGKTPIEAIIEAARMRLRPILMTSLAFILGVLPLVISHGAGSGAQNAVGTGVMGGMFAATVLAIYFVPVFFVVVEHLFARFKKA
notes: MdtF, RND inner membrane transporter of the MdtEF system, Escherichia coli; gene PCR amplified from E. coli genomic DNA, cloned into pET21a(+) between NdeI and XhoI; wild type; the whole gene appears to have been cloned. ~110 kDa band on SDS-PAGE; source: E. coli BL21ΔacrB acrD mdtABC (NKE1317), purified (2% DDM extraction, Ni-NTA, SEC in 0.03% DDM)
B2: MdtB, multidrug efflux HAE-RND transporter from Escherichia coli (natural protein)
chain: MQVLPPSSTGGPSRLFIMRPVATTLLMVAILLAGIIGYRALPVSALPEVDYPTIQVVTLYPGASPDVMTSAVTAPLERQFGQMSGLKQMSSQSSGGASVITLQFQLTLPLDVAEQEVQAAINAATNLLPSDLPNPPVYSKVNPADPPIMTLAVTSTAMPMTQVEDMVETRVAQKISQISGVGLVTLSGGQRPAVRVKLNAQAIAALGLTSETVRTAITGANVNSAKGSLDGPSRAVTLSANDQMQSAEEYRQLIIAYQNGAPIRLGDVATVEQGAENSWLGAWANKEQAIVMNVQRQPGANIISTADSIRQMLPQLTESLPKSVKVTVLSDRTTNIRASVDDTQFELMMAIALVVMIIYLFLRNIPATIIPGVAVPLSLIGTFAVMVFLDFSINNLTLMALTIATGFVVDDAIVVIENISRYIEKGEKPLAAALKGAGEIGFTIISLTFSLIAVLIPLLFMGDIVGRLFREFAITLAVAILISAVVSLTLTPMMCARMLSQESLRKQNRFSRASEKMFDRIIAAYGRGLAKVLNHPWLTLSVALSTLLLSVLLWVFIPKGFFPVQDNGIIQGTLQAPQSSSFANMAQRQRQVADVILQDPAVQSLTSFVGVDGTNPSLNSARLQINLKPLDERDDRVQKVIARLQTAVDKVPGVDLFLQPTQDLTIDTQVSRTQYQFTLQATSLDALSTWVPQLMEKLQQLPQLSDVSSDWQDKGLVAYVNVDRDSASRLGISMADVDNALYNAFGQRLISTIYTQANQYRVVLEHNTENTPGLAALDTIRLTSSDGGVVPLSSIAKIEQRFAPLSINHLDQFPVTTISFNVPDNYSLGDAVQAIMDTEKTLNLPVDITTQFQGSTLAFQSALGSTVWLIVAAVVAMYIVLGILYESFIHPITILSTLPTAGVGALLALLIAGSELDVIAIIGIILLIGIVKKNAIMMIDFALAAEREQGMSPREAIYQACLLRFRPILMTTLAALLGALPLMLSTGVGAELRRPLGIGMVGGLIVSQVLTLFTTPVIYLLFDRLALWTKSRFARHEEEA
notes: MdtB, RND inner membrane transporter of the MdtABC system, Escherichia coli; gene PCR amplified from E. coli genomic DNA, cloned into pET21a(+) between NdeI and XhoI; wild type; the whole gene appears to have been cloned. ~110 kDa band on SDS-PAGE; also called homotrimeric MdtB; source: E. coli BL21ΔacrB acrD mdtABC (NKE1317), purified (2% DDM extraction, Ni-NTA, SEC in 0.03% DDM); for cryo-EM …

Target: the molecule itself
Assay: SEC; Superdex 200 Increase 10/300 GL, 25 mM HEPES pH 7.5, 100 mM NaCl, 0.03% DDM; elution volume compared with the trimeric molecular weight

| Protein | stoichiometry N |
| --- | --- |
| B1 | 3 |
| B2 | 3 |
